From article PMC3161968

Target: recombinant flagellin type B of P. aeruginosa (P. aeruginosa) (UniProt P72151)
UniProt P72151, sequence (P72151 whole entry): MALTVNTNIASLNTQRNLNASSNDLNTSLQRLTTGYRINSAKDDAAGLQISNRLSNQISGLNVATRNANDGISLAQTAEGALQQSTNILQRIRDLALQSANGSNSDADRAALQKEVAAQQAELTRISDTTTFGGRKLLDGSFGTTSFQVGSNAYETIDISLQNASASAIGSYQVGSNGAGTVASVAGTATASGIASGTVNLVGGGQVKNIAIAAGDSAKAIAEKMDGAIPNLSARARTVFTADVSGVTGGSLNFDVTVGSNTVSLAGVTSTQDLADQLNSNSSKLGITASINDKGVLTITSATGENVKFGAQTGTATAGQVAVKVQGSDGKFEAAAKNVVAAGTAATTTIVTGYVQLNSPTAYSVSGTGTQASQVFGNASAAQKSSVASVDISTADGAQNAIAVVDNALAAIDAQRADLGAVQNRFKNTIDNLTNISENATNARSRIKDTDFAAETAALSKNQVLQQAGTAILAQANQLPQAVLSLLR

recombinant His-AprA (alkaline protease of P. aeruginosa) (from UniProt Q03023 10-479) (enzyme)
inhibition of flagellin-induced IL-8 production by HEK/TLR5 cells (30 ng/ml P. aeruginosa flagellin; the pair whose signalling is blocked is m6 with m7); AprA acts by degrading flagellin: 30 ng/mL
